In patent publication US20250012721:

How the values were obtained:
[1] = target: T1, substrate peptide 2: 2Abz-SLGRKIQ-Lys(Dnp)-NH2
T1 chain: SLGRKIQ

[2] = target: T2, substrate peptide 3: 2Abz-GYLGRSYKVG-Lys(Dnp)D-OH (not fully specified)
T2 chain: GYLGRSYKVG

[3] = target: T3, substrate peptide 1: 2Abz-GLQRALEI-Lys(Dnp)-NH2
T3 chain: GLQRALEI

B1: double-stranded activated C1s protein (protein)
chain 1: EPTMYGEILSPNYPQAYPSEVEKSWDIEVPEGYGIHLYFTHLDIELSENCAYDSVQIISGDTEEGRLCGQRSSNNPHSPIVEEFQVPYNKLQVIFKSDFSNEERFTGFAAYYVATDINECTDFVDVPCSHFCNNFIGGYFCSCPPEYFLHDDMKNCGVNCSGDVFTALIGEIASPNYPKPYPENSRCEYQIRLEKGFQVVVTLRREDFDVEAADSAGNCLDSLVFVAGDRQFGPYCGHGFPGPLNIETKSNALDIIFQTDLTGQKKGWKLRYHGDPMPCPKEDTPNSVWEPAKAKYVFRDVVQITCLDGFEVVEGRVGATSFYSTCQSNGKWSNSKLKCQPVDCGIPESIENGKVEDPESTLFGSVIRYTCEEPYYYMENGGGGEYHCAGNGSWVNEVLGPELPKCVPVCGVPREPFEEKQR
chain 2: IIGGSDADIKNFPWQVFFDNPWAGGALINEYWVLTAAHVVEGNREPTMYVGSTSVQTSRLAKSKMLTPEHVFIHPGWKLLEVPEGRTNFDNDIALVRLKDPVKMGPTVSPICLPGTSSDYNLMDGDLGLISGWGRTEKRDRAVRLKAARLPVAPLRKCKEVKVEKPTADAEAYVFTPNMICAGGEKGMDSCKGDSGGAFAVQDPNDKTKFYAAGLVSWGPQCGTYGLYTRVKNYVDWIMKTMQENSTPRED
Kcat/Km [1]: 1.45 | Kcat/Km [2]: 15.4 | Kcat/Km [3]: 1.67
